Experiment [1] concerns the target T1, Fc Receptor-like 5 (FcRL5), full length, overexpressed on 3T3 or Raji cells (human, UniProt Q96RD9 16-977).
T1 construct: also called 3T3-FcRL5
T1 sequence: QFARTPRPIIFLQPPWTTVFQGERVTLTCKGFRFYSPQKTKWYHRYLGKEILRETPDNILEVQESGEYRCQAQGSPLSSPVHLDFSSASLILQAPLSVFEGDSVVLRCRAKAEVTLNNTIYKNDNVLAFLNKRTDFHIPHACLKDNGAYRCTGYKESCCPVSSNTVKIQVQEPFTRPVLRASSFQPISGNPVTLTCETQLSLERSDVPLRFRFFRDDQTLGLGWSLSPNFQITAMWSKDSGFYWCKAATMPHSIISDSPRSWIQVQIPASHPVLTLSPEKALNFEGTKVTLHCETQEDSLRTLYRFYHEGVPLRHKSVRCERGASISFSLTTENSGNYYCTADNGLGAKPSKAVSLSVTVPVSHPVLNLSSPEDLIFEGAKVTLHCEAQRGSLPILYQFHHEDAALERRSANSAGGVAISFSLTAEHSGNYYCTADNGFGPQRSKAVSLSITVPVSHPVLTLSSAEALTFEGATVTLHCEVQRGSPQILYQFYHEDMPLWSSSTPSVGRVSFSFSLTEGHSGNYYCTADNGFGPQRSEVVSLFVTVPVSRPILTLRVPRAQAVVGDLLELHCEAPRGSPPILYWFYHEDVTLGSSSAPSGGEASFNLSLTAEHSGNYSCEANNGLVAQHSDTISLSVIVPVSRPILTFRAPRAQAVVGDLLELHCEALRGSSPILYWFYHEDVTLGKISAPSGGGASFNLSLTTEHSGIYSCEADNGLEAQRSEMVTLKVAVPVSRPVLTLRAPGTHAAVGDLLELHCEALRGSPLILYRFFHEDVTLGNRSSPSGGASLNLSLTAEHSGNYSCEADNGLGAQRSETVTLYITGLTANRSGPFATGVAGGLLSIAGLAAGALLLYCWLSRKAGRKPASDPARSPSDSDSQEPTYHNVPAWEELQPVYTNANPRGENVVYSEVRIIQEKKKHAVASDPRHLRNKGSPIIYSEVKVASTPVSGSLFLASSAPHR
Kind of experiment: phage clone screening on cells. Put shortly:
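scFv phage clones were incubated with live 3T3 cells overexpressing full-length FcRL5, then detected with mouse anti-M13 mAb and PE-anti-mouse Ig by flow cytometry. 3T3 cells expressing FcRL1, 2, 3, 4 or 6 served as negative-control targets.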

The next experiment deals with SLAMF9 protein (UniProt Q96A28 19-236, limits assumed). In words: phage clone on SLAMF9 protein.
The target of experiment [2] is T2, FcRL1, overexpressed on 3T3 cells (UniProt Q96LA6 17-429, limits assumed).
T2 construct: whole, on cells
T2 sequence (looked up): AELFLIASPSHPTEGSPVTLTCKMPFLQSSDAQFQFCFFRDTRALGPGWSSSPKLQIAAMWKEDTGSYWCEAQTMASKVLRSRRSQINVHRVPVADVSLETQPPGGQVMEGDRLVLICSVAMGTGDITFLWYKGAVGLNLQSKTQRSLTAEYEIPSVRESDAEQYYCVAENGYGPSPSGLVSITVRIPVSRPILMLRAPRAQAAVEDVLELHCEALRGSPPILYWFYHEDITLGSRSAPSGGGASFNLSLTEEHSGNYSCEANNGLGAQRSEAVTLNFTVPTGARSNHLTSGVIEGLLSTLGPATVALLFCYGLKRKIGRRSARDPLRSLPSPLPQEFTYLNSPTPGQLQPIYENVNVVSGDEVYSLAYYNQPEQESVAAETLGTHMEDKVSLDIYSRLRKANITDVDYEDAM
In words: phage clone on 3T3-FcRL1 cells.

For experiment [3], the target named is T3, FcRL3, overexpressed on 3T3 cells (UniProt Q96P31 18-734, limits assumed).
T3 construct: whole, on cells
T3 sequence (looked up): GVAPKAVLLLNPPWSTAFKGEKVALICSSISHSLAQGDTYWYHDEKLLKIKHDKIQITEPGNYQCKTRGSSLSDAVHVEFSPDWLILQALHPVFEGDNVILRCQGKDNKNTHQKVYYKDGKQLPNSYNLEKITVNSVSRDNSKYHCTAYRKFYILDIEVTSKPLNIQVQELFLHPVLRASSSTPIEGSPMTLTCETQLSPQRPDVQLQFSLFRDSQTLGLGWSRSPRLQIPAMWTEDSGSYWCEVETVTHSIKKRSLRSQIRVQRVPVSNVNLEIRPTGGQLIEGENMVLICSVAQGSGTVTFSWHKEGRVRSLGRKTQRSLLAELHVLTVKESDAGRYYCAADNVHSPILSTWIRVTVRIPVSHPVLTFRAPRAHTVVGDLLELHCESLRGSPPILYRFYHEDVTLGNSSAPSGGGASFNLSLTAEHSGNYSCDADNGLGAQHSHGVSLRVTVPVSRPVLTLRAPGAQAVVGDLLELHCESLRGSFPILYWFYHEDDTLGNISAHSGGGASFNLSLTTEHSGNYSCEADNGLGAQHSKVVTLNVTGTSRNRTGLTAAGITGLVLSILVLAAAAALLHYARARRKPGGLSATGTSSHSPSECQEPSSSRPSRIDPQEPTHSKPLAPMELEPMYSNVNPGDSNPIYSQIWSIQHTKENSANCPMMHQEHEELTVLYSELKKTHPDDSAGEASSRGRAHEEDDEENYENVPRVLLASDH
Kind of experiment: phage clone on 3T3-FcRL3 cells.

The target of experiment [4] is T4, FcRL2, overexpressed on 3T3 cells (UniProt Q96LA5 20-508, limits assumed).
T4 construct: whole, on cells
T4 sequence (looked up): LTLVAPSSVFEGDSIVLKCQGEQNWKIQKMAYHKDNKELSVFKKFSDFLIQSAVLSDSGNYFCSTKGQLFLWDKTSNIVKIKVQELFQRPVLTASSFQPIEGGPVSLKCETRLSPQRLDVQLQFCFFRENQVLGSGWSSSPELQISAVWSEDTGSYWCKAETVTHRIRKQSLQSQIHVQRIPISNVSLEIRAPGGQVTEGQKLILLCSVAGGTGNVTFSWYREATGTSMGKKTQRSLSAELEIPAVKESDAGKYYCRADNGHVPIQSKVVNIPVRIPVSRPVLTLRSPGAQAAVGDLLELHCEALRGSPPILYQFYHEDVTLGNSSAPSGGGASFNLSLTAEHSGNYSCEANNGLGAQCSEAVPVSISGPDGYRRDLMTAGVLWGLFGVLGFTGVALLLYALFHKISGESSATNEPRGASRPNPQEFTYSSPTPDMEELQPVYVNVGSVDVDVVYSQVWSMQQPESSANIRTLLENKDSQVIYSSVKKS
In words: phage clone on 3T3-FcRL2 cells.

Positions count from the first letter of the chain named.

Chain of SLAMF9 protein (Q96A28 19-236 limits assumed): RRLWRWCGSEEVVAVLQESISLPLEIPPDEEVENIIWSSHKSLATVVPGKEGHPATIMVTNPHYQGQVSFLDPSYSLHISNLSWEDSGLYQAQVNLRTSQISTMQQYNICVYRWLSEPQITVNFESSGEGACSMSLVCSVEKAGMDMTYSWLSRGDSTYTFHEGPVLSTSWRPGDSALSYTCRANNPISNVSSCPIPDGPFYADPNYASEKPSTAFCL

B1: ET200-099 (scFv)
scFv: QSVLTQPPSASGTPGQRVTISCSGSSSNIGSNTVNWYQQLPGTAPKLLIYSNDQRPSGVPDRFSGSKSGTSASLAISGLQSEDEADYYCASWDDSLNGRYVFGTGTKVTVLGSRGGGGSGGGGSGGGGSLEMAQVQLVQSGAEVRKPGASVKVSCKTSGYTFSWYAIHWVRQAPGQRLEWMGWINAGNGNTKYSQKFQGRVSLTRDTSASTAYMELSSLRSDDTAVYYCARPDNYGSGGDVFDIWGQGTMVTVSSTSGQAGQHHHHHHGAYPYDVPDYAS
notes: screened as phage clone; entry is VL-linker-VH-His tag-HA tag
In the case of B1, the binding result in experiment [1] is “binds”; with SLAMF9 protein, “no binding”; in experiment [2], “no binding”; in experiment [3], “no binding”; in experiment [4] it was “no binding”.

B2: ET200-102 (scFv)
scFv: QSVVTQPPSVSAAPGQKVTISCSGSSSNIGNNYVSWYQQLPGTAPKLLIYDNNKRPSGIPDRFSGSKSGTSATLGITGLQTGDEADYYCGTWDSSLSAYVFGTGTKVTVLGSRGGGGSGGGGSGGGGSLEMAQVQLVQSGAEVKKPGASVKVSCKASGYTFTNYALHWVRQAPGQGLEWMAWINGGNGNTKYSQNFQGRVTITRDTSASTAYMELSSLRSEDTAVYYCAKPEETAGTIHFDYWGQGTPVTVSSTSGQAGQHHHHHHGAYPYDVPDYAS
notes: as for B1
Consider B2, for which the binding result in experiment [1] is listed as “binds”; with SLAMF9 protein it was “no binding”; in experiment [2], “no binding”; in experiment [3] it was “no binding”; in experiment [4], “no binding”.

B3: ET200-100 (scFv)
scFv: NFMLTQPHSVSESPGKTVTISCTRSSGSIASNFVQWYQQRPGSAPTPMIYEDNNRPPGVPDRFSASVDSSSNSASLTISGLKTEDEADYYCQSYDTSNVVFGGGTKLTVLGSRGGGGSGGGGSGGGGSLEMAEVQLVESGGGLVQPGGSLRLSCAASGFTFSSYEMNWVRQAPGKGLEWVSYISSSGSTIYYADSVKGRFTISRDNAKNSLYLQMNSLRAEDTAVYYCARWDYGMDVWGQGTTVTVSSTSGQAGQHHHHHHGAYPYDVPDYAS
notes: as for B1
For B3, the binding result is recorded as “binds” in experiment [1]; “no binding” with SLAMF9 protein; “no binding” in experiment [2]; “no binding” in experiment [3]; “no binding” in experiment [4].

B4: ET200-104 (scFv)
scFv: B3 scFv with F33Y, P47T, M48V, N54Q, P57S, A65G, V67I, T96S, L107V
notes: as for B1
As to B4, the binding result in experiment [1] was “binds”; with SLAMF9 protein, “no binding”; in experiment [2], “no binding”; in experiment [3], “no binding”; in experiment [4], “no binding”.

B5: ET200-006 (scFv)
scFv: SYVLTQPPSVSVAPGKTARITCGGNNIGSKSVHWYQQKPGQAPVVVIHYDSDRPSGIPERFSGSNSGNTATLTISRVEAGDEADYYCQVWDSSSDHPYVFGTGTKVTVLGSRGGGGSGGGGSGGGGSLEMAEVQLVQSGAEVKKPGASVKVSCKASGYTFTTYGISWVRQAPGQGLEWMGWINTYNGHTNYAQKLQGRATMTADTSTNTAYMELRSLRSDDTAVYYCARVIYGSGDYWGQGTLVTVSSTSGQAGQHHHHHHGAYPYDVPDYAS
notes: as for B1
Turning to B5, the binding result in experiment [1] is recorded as “binds”; in the experiment with SLAMF9 protein, “no binding”; in experiment [2] it was “no binding”; in experiment [3], “no binding”; in experiment [4] it was “no binding”.

B6: ET200-097 (scFv)
scFv: LPVLTQPPSVSVSPGQTAIITCSGDKLGEKYVSWYQQKPGQSPVLVIDQDTRRPSGIPERFSGSNSGTTATLTISGTQAMDEADYYCQAWDRGVVFGGGTKLTVLGSRGGGGSGGGGSGGGGSLEMAEVQLVESGGDLVQPGRSLRLSCAASGFTFNDYAMHWVRQAPGKGLEWVSGISWSGNNIGYADSVKGRFTISRDNAKNSLYLQMNSLRAEDTALYYCAKDSIRYGITWGGFDYWGQGTLVTVSSTSGQAGQHHHHHHGAYPYDVPDYAS
notes: as for B1
Turning to B6, the binding result in experiment [1] is listed as “binds”; with SLAMF9 protein it was “no binding”; in experiment [2], “no binding”; in experiment [3], “no binding”; in experiment [4] it was “no binding”.

B7: ET200-098 (scFv)
scFv: QPVLTQPPSVSKGLRQTATLTCTGNSNNVGNLGVAWLQQHQGHPPKLLSYRNNNRPSGISERLSASRSGNTASLTITGLQPEDEADYYCSAWDSSLSAWVFGGGTKLTVLGSRGGGGSGGGGSGGGGSLEMAEVQLVESGGVVVQPGGSLRLSCAASGFTFDDYAMHWVRQAPGKGLEWVSLINWDGGSTYYADSVKGRFTISRDNSKNSLYLQMNSLRAEDTALYYCAKGMGLRAFDYWGQGTLVTVSSTSGQAGQHHHHHHGAYPYDVPDYAS
notes: as for B1
As to B7, the binding result is given as “binds” in experiment [1]; “no binding” with SLAMF9 protein; “no binding” in experiment [2]; “no binding” in experiment [3]; “no binding” in experiment [4].

B8: ET200-101 (scFv)
scFv: QAVLTQPPSASGAPGQRVTVSCSGSNSNIGSNYVNWYQQFPGTAPKLLMYSSSQRPSGVPDRFSGSKSGTSASLAISGLHSEDEADYYCATWDDSLNAWVFGGGTKLTVLGSRGGGGSGGGGSGGGGSLEMAEVQLVQSGAEVRKPGASVKVSCKTSGYTFTWYAIHWVRQAPGQRLEWMGWINAGSGNTKYSQKFQGRVTLTRDTSASTAYMELSSLRSDDTAVYYCARPNNYGSGGDVFDIWGQGTMVTVSSTSGQAGQHHHHHHGAYPYDVPDYAS
notes: as for B1
Consider B8, for which the binding result in experiment [1] is listed as “binds”; with SLAMF9 protein, “no binding”; in experiment [2] it was “no binding”; in experiment [3], “no binding”; in experiment [4], “no binding”.
